Test [1] addresses T1, native soluble IL-6R in human plasma (human, UniProt P08887). The test can be described thus: ELISA 1, periplasmic extract; competitor IL-6; human plasma. The method, then: (§1) In this ELISA, plasma was used as a source of native soluble IL-6R. By this assay, we aimed to confirm the alphascreen results and to get a view on the cross-reactivity of the clones towards cynomolgous IL-6R. Human plasma (ELISA 1 and ELISA 3) or cynomolgous plasma (ELISA 2) were pre-incubated with a dilution of the periplasmic extract of the clones together with human IL-6 (50 ng/mL). Subsequently, plasma soluble IL-6R was captured on a B-N12 coated plate and bound IL-6 was detected using anti-IL-6 antibody BAF206 and streptavidin-HRP (ELISA 1 and ELISA 2). The ELISA signal dropped when the Nanobody clone could compete with IL-6 for binding to soluble IL-6R. ELISA 3 was a parallel ELISA in which the detection antibody was replaced by anti-IL-6R antibody BAF227 to exclude false positive competitors, which actually compete with B-N12 (e.g. family 2). Depicted in Table C-5 is the ratio of the OD450 value of the test sample versus the blank OD450 (mock sample). Clones were ordered based on ELISA 1 data.
In general terms: In an ELISA, binding on a coated surface is turned into a signal by an enzyme label.

Test [2] concerns the target soluble IL-6R in cynomolgous plasma (cynomolgus monkey, UniProt A0A2K5WN54). The test is described as follows: ELISA 2, periplasmic extract; competitor IL-6; cyno plasma. The method, then:
as §1

For test [3], the target named is T1, native soluble IL-6R in human plasma. The test is described as follows: ELISA 3, periplasmic extract; competitor BN-12; human plasma. The method, then: as §1

B1: IL6RPMP101F2 (VHH)
VHH: EVQLVESGGGLVQAGGSLRLSCAASGFAFDDYAIGWFRQAPGKEREGVSSISSSNGNTYYADSVRGRFTISSDNAKNTVYLQMNSLKPEDTGVYYCAAIWGIFFNEKMPVGAYDYWGQGTQVTVSS
For the molecule B1, the OD450 ratio sample/blank in test [1] was determined as 0.569; in test [2], 0.811; in test [3], 0.972.

B2: IL6RPMP101C3 (VHH)
VHH: EVQLVESGGGLVRAGGSLRLSCAASGFAFDDYAIGWFRQAPGKEREGVSSISSSNGNTYYADSVRGRFTISSDNAKNTVYLQMNSLKPEDTGVYYCAAIWGIFFNEKMPVGAYDYWGQGTQVTVSS
B2: the OD450 ratio sample/blank amounted to 0.58 in test [1], 0.801 in test [2] and 0.975 in test [3].

B3: IL6RPMP105H10 (VHH)
VHH: EVQMVESGGGLVQAGGSLRLSCAASGFAFDDYAIGWFRQAPGKEREGVSSISSSNGNTYYADSVRGRFTISSDNAKNTVYLQMNSLKPEDAGVYYCAAIWGIFFNEKMPVGAYDYWGQGTQVTVSS
On to B3, for which the OD450 ratio sample/blank stood at 0.627 in test [1], 0.679 in test [2] and 1.02 in test [3].

B4: IL6RPMP101B3 (VHH)
VHH: EVQLVESGGGLVQAGGSLRLSCAASGSIFRINAMGWYRQAPGKQRELVAAAISGGSTNYADFVKGRFTISRDNAKNTVYLQMNSLKPEDTAVYYCNALVVSHNYSDYVPFPDDYWGQGTQVTVSS
On to B4, for which the OD450 ratio sample/blank was found to be 0.402 in test [1], 1.05 in test [2] and 0.972 in test [3].

B5: IL6RPMP105D3 (VHH)
VHH: EVQLEESGGGLVQAGGSLRLSCAASGSIFRINAMGWYRQAPGKQRELVAAAISGGSTNYADFVKGRFTISRDNAKNTVYLQMNSLKPEDTAVYYCNALVVSHNYSDYVPFPDDYWGQGTQVTVSS
In the case of B5, the OD450 ratio sample/blank worked out at 0.457 in test [1], 0.995 in test [2] and 1.01 in test [3].

B6: IL6RPMP106F4 (VHH)
VHH: EVQLVESGGGLVQAGGSLRLSCAASGSIFRINAMGWYRQAPGKQRELVAAAISGGSTNYADFVKGRFTISRDNAKNTVYLQMNSLKPGDTAVYYCNALVVSHNYSDYVPFPDDYWGQGTQVTVSS
On to B6, for which the OD450 ratio sample/blank amounted to 0.557 in test [1], 1.19 in test [2] and 1.01 in test [3].

B7: IL6RPMP101G2 (VHH)
VHH: EVQLVESGGGLVQAGGSLRLSCAASGSIFRINAMGWYRQAPGKQRELVAAAISGGSTNYADFVKGRFTISRDNAKNTVYLQMNSLKPEDTAVYYCNALVVSHNYSDYVPFPDDYWGQGTQVTVSS
For the molecule B7, the OD450 ratio sample/blank came to 0.597 in test [1], 1.04 in test [2] and 0.975 in test [3].

B8: IL6RPMP105C2 (VHH)
VHH: EVQLVESGGGLVQAGGSLRLSCAASGSIFRINAMGWYRQAPGEQRELVAAAISGGSTNYADFVKGRFTISRDNAKNTVYLQMNSLKPEDTAVYYCNALVVSHNYSDYVPFPDDYWGQGTQVTVSS
Turning to B8, the results for the OD450 ratio sample/blank in test [1], in test [2] and in test [3] were 0.577, 1.01 and 0.996, respectively.

B9: IL6RPMP120C1 (VHH)
VHH: EVQLVESGGGLVQAGGSLSLSCATSGRTISDDTMAWFRQAPGKEREFVATITFSGARTHYSDSVRDRFTISRDNAKNTVYLQMNSLKSEDTAVYYCAASTKYYSSTYNYIHPAFYDIWGQGTQVTVSS
On to B9, for which the OD450 ratio sample/blank in test [1] amounted to 0.567; in test [2] it was 0.187; in test [3], 1.02.

B10: IL6RPMP120A1 (VHH)
VHH: EVQLVESGGGLVQAGGSLSLSCATSGRTISDDTMAWFRQAPGKEREFVATITFSGARTHYSDSVRDRFTISRDNAKNTVYLQMNSLKSEDTAVYYCAASTKYYSSTYNYIHPAFYDIWGQGTQVTVSS
On to B10, for which the results for the OD450 ratio sample/blank in test [1], in test [2] and in test [3] were 0.598, 0.198 and 1.01, respectively.

B11: IL6RPMP120B2 (VHH)
VHH: EVQLVESGGGLVQAGGSLSLSCATSGRTISDDTMAWFRQAPGKEREFVATITFSGARTHYSDSVRDRFTISRDNAKNTVYLQMNSLKSEDTAVYYCAASTKYYSSTYNYIHPAFYDIWGQGTQVTVSS
Take B11: the values for the OD450 ratio sample/blank in test [1], in test [2] and in test [3] were 0.645, 0.204 and 1.02, respectively.

B12: IL6RPMP103D7 (VHH)
VHH: EVQLVESGGGLVEAGGSLRLSCAAAGRTLSSYSMAWFRQAPGKEREFVAIIRGNPSRTYHSDSVKGRFTASRDNAKNTVYLQMNRLEPEDTAVYYCAADPPPFASDYSAPQSYDYWGQGTQVTVSS
Regarding B12, the values for the OD450 ratio sample/blank in test [1], in test [2] and in test [3] were 0.355, 0.0821 and 0.98, respectively.

B13: IL6RPMP107C3 (VHH)
VHH: EVQLVESGGGLVQAGGSLNLSCNASGDIGSINAMGWHRQAPGQQREWVAVITDTDSTIYPDSVKGRFAISRDGAKNTVHLRMSSLKPEDTAVYYCNAYQAGWGDYWGQGTQVTVSS
Take B13: the OD450 ratio sample/blank in test [1] is 0.438; in test [2] it was 0.904; in test [3] it was 1.06.

B14: IL6RPMP107G10 (VHH)
VHH: EVQLVESGGGLVQAGGSLRLSCAASGSIENINAMGWYRQAPGKQRDFLAIITDGSKTLYADSVKGRFTISNDNAKNTVYLQMNSLKPEDTAVYYCNAYQAGWGDYWGQGTQVTVSS
On to B14, for which the OD450 ratio sample/blank in test [1] was determined as 0.523; in test [2], 0.883; in test [3], 1.01.

B15: IL6RPMP107E4 (VHH)
VHH: EVQLVESGGGLVQAGGSLRLSCAASGSIDRINAMGWYRQAPGKQRDFLAVITDGDKTLYADSVKGRFTISNDNAKNTVYLQMNSLKPEDTAVYYCNAYQAGWGDYWGQGTQVTVSS
For B15, the results for the OD450 ratio sample/blank in test [1], in test [2] and in test [3] were 0.592, 1.19 and 1.02, respectively.

B16: IL6RPMP101A1 (VHH)
VHH: EVQLVESGGGTVQAGGSLKLSCAASGRTFTNYAMGWFRQAPGKEREFVAAIAYATHFADSVKGRFTISRGNAKNTVYLQMNSLKPEDTAVYYCAADLSLSKMVSKITSDMDYWGKGTLVTVSS
Regarding B16, the OD450 ratio sample/blank in test [1] stood at 0.508; in test [2], 0.521; in test [3] it was 0.989.

B17: IL6RPMP120F4 (VHH)
VHH: EVQLVESGGGLVQTGGSLRLSCAVSGRTDSTASVGWFRQAPGKQREWVVGISSGGSTHYADSVKGRFISSQDDAKNTVYLQMNSLKPEDTAIYYCAIAHGSSTYNYWGQGTQVTVSS
In the case of B17, the OD450 ratio sample/blank stood at 0.498 in test [1], 0.0331 in test [2] and 0.923 in test [3].
